Data taken from patent US20200164059A1.

Legend:
[1] = biological target: EBV gH/gL heterodimer, recombinant ectodomain (Epstein Barr virus); test: BLI kinetics, pH 7.4, ligand AMMO1Q1NHC Mab, analyte gH/gL; KD M x10^-9
[2] = biological target: EBV gH/gL heterodimer, recombinant ectodomain (Epstein Barr virus); test: BLI kinetics, pH 7.4, ligand AMMO1Q1NHC Mab, analyte gH/gL; KA M^-1 x10^7
[3] = biological target: EBV gH/gL heterodimer, recombinant ectodomain (Epstein Barr virus); test: BLI kinetics, pH 7.4, ligand AMMO1Q1NHC Mab, analyte gH/gL; kon (1/Ms) x10^5
[4] = biological target: EBV gH/gL heterodimer, recombinant ectodomain (Epstein Barr virus); test: BLI kinetics, pH 7.4, ligand AMMO1Q1NHC Mab, analyte gH/gL; koff (1/s) x10^-3
[5] = biological target: T1, EBV gH/gL heterodimer, recombinant ectodomain (Epstein Barr virus); test: BLI kinetics, pH 7.4, ligand gH/gL, analyte AMMO1 Fab; KD M x10^-9
[6] = biological target: T1, EBV gH/gL heterodimer, recombinant …; test: BLI kinetics, pH 7.4, ligand gH/gL, analyte AMMO1 Fab; KA M^-1 x10^7

Binder | Kd [1] [nM] | Ka [2] [M⁻¹] | kon [3] [M⁻¹ s⁻¹] | koff [4] [s⁻¹] | Kd [5] [nM] | Ka [6] [M⁻¹]
AMMO1 containing a Q1N heavy chain mutation (antibody, V domains shown) VH: NVQLVQSGADVKKPGASVKVSCKASGYTFIHFGISWVRQAPGQGLEWMGWIDTNNGNTNYAQSLQGRVTMTTDTSTGTAYMELRSLSTDDTAVYFCARALEMGHRSGFPFDYWGQGVLVTVSP VL: SYELTQPPSVSVAPGQRATITCGGHNIGAKNVHWYQQKPGQAPVLVIQYDSDRPSGIPERFSGSNSGSTATLTISRVEAGDEADYYCQVWDSGRGHPLYVFGGGTKVTVL | 0.16 | 6.34e+09 | 244000 | 3.85e-05 |  | 
AMMO1 Fab (Fab, V domains shown, modifications not checked) VH: QVQLVQSGADVKKPGASVKVSCKASGYTFIHFGISWVRQAPGQGLEWMGWIDTNNGNTNYAQSLQGRVTMTTDTSTGTAYMELRSLSTDDTAVYFCARALEMGHRSGFPFDYWGQGVLVTVSP VL: SYELTQPPSVSVAPGQRATITCGGHNIGAKNVHWYQQKPGQAPVLVIQYDSDRPSGIPERFSGSNSGSTATLTISRVEAGDEADYYCQVWDSGRGHPLYVFGGGTKVTVL |  |  |  |  | 0.12 | 8.12e+09
